Patent US20160185837A1 (AstraZeneca / MedImmune, published 2016)
Ends that are not written are not given here.

T1: human GIP receptor (human, UniProt P48546 22-466)
T1 sequence (looked up): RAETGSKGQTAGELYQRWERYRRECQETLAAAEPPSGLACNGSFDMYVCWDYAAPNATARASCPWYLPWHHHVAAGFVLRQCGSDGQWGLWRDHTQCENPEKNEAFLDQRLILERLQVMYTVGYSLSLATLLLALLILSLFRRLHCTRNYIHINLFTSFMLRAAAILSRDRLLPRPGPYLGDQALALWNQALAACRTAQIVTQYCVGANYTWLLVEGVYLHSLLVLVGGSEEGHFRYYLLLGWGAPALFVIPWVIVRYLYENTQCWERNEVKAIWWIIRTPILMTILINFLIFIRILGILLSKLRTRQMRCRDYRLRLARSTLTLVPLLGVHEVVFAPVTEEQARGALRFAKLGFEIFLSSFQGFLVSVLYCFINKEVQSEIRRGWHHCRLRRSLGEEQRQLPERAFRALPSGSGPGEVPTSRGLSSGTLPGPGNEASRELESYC

T2: mouse GIP receptor (mouse, UniProt Q0P543 19-460)
T2 sequence (looked up): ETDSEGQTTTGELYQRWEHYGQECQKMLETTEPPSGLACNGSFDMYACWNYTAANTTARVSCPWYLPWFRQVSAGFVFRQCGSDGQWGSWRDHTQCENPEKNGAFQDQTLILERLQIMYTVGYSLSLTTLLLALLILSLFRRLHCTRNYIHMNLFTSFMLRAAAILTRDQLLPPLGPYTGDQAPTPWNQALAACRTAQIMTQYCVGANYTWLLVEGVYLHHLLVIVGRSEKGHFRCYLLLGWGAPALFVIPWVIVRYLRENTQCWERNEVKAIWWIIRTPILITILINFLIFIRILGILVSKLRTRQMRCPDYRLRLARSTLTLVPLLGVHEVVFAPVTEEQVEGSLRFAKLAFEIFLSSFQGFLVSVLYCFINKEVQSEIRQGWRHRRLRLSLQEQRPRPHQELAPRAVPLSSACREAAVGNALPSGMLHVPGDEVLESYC


Assays:
Test in all cases: cell-based or functional assay
human GLP-1 receptor = human GLP-1 receptor (human, UniProt P43220 24-463)
human GIP receptor = biological target: T1, human GIP receptor
human glucagon receptor = human glucagon receptor (human, UniProt P47871 26-477)
mouse GIP receptor = biological target: T2, mouse GIP receptor

Binder	cAMP EC50 (human GLP-1 receptor) [nM]	cAMP EC50 (human GIP receptor) [nM]	cAMP EC50 (human glucagon receptor) [nM]	cAMP EC50 (mouse GIP receptor) [nM]	cAMP EC50, hGIPr (C3) line (human GIP receptor) [nM]
YSEGTFTSDYSKLLEEEAVRLFIEWLVKGPGGGGGGGGGGGGATHTCPPC (Fc fusion) [IP284]	0.2	0.039	18000		
IP239 (Fc fusion) YSEGTFTSDYSKLLEEEAVRLFIEWLVKGPAAAGGSGSTASSGSGSATGGGGAACPPCPAPEF	0.088	0.008	> 990		
IP290 (Fc fusion) YSEGTFTSDYSKLLEEEAVRLFIEWLVKGPGGGGGGGGGGGGGGGGGGGGACPPC	0.14	0.018	> 2590		
IP411 (Fc fusion) YGEGTFTSDYSKLLEEEAVRLFIEWLVKGPGGGGGGGGGGGGGGGGGGGGACPPC	0.42		> 631	> 631	
IP281 (Fc fusion) YSEGTFTSDYSKLLEEEAVRLFIEWLVKGPGGGGGSGGGGSGGGGSGGGGSACPPC	0.087	0.014	3800		
IP172 (Fc fusion) HGEGTFTSDVSSYMERQAIDEFIAWLLAGAAAGGSGSTASSGSGSATGGGGAATHTCPPCPAPEF	0.057	16	> 15000		
IP175 (Fc fusion) HGEGTFTSDVSSYMESQLVREFIAWLVKGAAAGGSGSTASSGSGSATGGGGAATHTCPPCPAPEF	0.051				
IP214 (Fc fusion) HGEGTFTSDVSSYMEAQKIDEFIAWLVKGAPPGGSGSTASSGSGSATGGGGAATHTCPPCPAPEF	0.075				
IP215 (Fc fusion) HGEGTFTSDVSSYMESQLVDEFIAWLVKGAAAGGSGSTASSGSGSATGGGGAATHTCPPCPAPEF	0.05				
YSEGTFTSDYSKLLEEEAVRLFIEWLVKGPGGGGGGGATHTCPPC (Fc fusion) [IP283]	0.56	0.049	> 17000		
IP210 (Fc fusion) YSEGTFTSDLSKLLEEEAVRLFIEWLVKGPAAAGGSGSTASSGSGSATGGGGAATHTCPPCPAPEF	0.18	0.019			
IP211 (Fc fusion) YSEGTFTSDYSSYMEEEAVRLFIEWLVKGPAAAGGSGSTASSGSGSATGGGGAATHTCPPCPAPEF	0.23	0.5			
IP252 (Fc fusion) YSEGTFTSDYSKLLEEEAVRLFIEWLVKGPGGGGGSGGGGSGGGGSAESKYGPPCPPCPAPEAA	0.19	0.024	> 3200		
IP255 (Fc fusion) YSEGTFTSDYSKLLEEEAVRLFIEWLKNGTGGGGGSGGGGSGGGGSGGGGSATHTCPPCPAPEF	0.22	0.07	> 4600		
IP265 (Fc fusion) YSEGTFTSDYSKLLEEEAVRLFIEWLVKGPGKGGGSGGGGSGGGGSGGGGSATHTCPPCPAPEF	0.1	0.015	> 13000		
IP254 (Fc fusion) YSEGTFTSDYSKLLEEEAVRLFIEWLLAGNGTGGGGSGGGGSGGGGSGGGGSATHTCPPCPAPEF	0.53	0.026	160		
IP198 (Fc fusion) HGEGTFTSDVSSYMERQAIDEFIAWLLKGGAAAGGSGSTASSGSGSATGGGGAATHTCPPCPAPEF	0.042	6.3			
IP206 (Fc fusion) HGEGTFTSDVSSYMEAQSIREFIAWLVKGPAPPGGSGSTASSGSGSATGGGGAATHTCPPCPAPEF	0.084				
IP256 (Fc fusion) YSEGTFTSDYSKLLEEEAVRLFIEWLLAGGHNITQGGGGGSGGGGSGGGGSGGGGSATHTCPPCPAPEF	0.4	0.037	> 420		
IP421 (Fc fusion) HGEGTFTSDLSKQMEEECVRLFIEWLKNGGPSSGAPPPGCGSGGGGSGGGGSGGGGSGGGGSGGGGSGGGGSGGGGSACPPC	3		> 106	> 106	
IP285 (Fc fusion) YSEGTFTSDYSKLLEEEAVRLFIEWLVKGPGGGGGGGGGGGGGGGGGGGGGGGATHTCPPC	0.076	0.0087	1600		
YSEGTFTSDYSKLLEEEAVRLFIEWLVKGPGGGGGSATHTCPPCPAPEF (Fc fusion, cysteine pairing not given here; also: fused to IgG1-TM Fc) [IP234]	0.74	0.043	> 15000		
IP286 (Fc fusion) YSEGTFTSDYSKLLEEEAVRLFIEWLVKGPGGGGGGGGGGGGGGGGGGGGGGGGGGGATHTCPPC	0.072	0.008	920		
IP229 (Fc fusion) YSEGTFTSDYSKLLEEEAVRLFIEWLLAGAAAGGSGSTASSGSGSATGGGGAATHTCPPCPAPEF	0.15	0.0062	28		
IP423 (Fc fusion) YSEGTHTSDLRILLEEEAVRLFIEFLLAGGGSGGGGSGGGGSGGGGSGGGGSGGGGSGGGGSGGGGSACPPC	> 34.2		> 34.2	12	
IP415 (Fc fusion) HSQGTFTSDYSKILEEEAVRLFIEWLLAGGGSGGGGSGGGGSGGGGSGGGGSGGGGSGGGGSGGGGSACPPC	0.038		0.018	5.6	
IP410 (Fc fusion) YSEGTFTSLYRIHKEEEAVRLFIEKLLAGGGSGGGGSGGGGSGGGGSGGGGSGGGGSGGGGSGGGGSACPPC	> 7.99		> 7.99		> 7.99
IP416 (Fc fusion) YSEGTFTSDYSKLLEEEAVRLFIEWLLAGGGSGGGGSGGGGSGGGGSGGGGSGGGGSGGGGSGGGGSACPPC	0.1		3.4	1.1	
